± gives the uncertainty stated by the source.
Experiment: self-splicing fitness, log relative to wild type (ln ratio); higher = more splicing; Tetrahymena group I intron in knt gene, E. coli kanamycin selection, DiMSum; sequences stand for … in CUCUCU…GGAGGGAAAAGUUAUCAGGCAUGCACCUGGUAGCUAGUCUUUAAACCAAUAGAUUGCAUCGGUUUAAAAGGCAAGACCGUCAAAUUGCGGGAAAGGGGUCAACAGCCGUUCAGUACCAAGUCUCAGGGGAAACUUUGAGAUGGCCUUGCAAAGGGUAUGGUAAUAAGCUGACGGACAUGGUCCUAACCACGCAGCCAAGUCCUAAGUCAACAGAUCUUCUGUUGAUAUGGAUGCAGUUCACAGACUAAAUGUCGGUCGGGGAAGAUGUAUUCUUCUCAUAAGAUAUAGUCGGACCUCUCCUUAAUGGGAGCUAGCGGAUGAAGUGAUGCAACACUGGAGCCGCUGGGAACUAAUUUGUAUGCGAAAGUAUAUUGAUUAGUUUUGGAGUACUCGUGGUCG
Outline: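 Library with all eight P1ex-region intron nucleotides randomised, intron inside the knt kanamycin-resistance gene on pET-22b(+), in E. coli BL21(DE3). Cells grew overnight at 37°C or 30°C on LB agar with or without 25 μg/mL kanamycin (plus 100 μg/mL carbenicillin, 50 μM IPTG, 0.2% rhamnose), in six replicate transformations. Pooled colonies were amplicon-sequenced on Illumina HiSeq 2500. DiMSum fitness is the error-weighted combination of wild-type-normalised replicate fold changes, kanamycin versus none.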

Row | Sequence | self-splicing fitness (ln) (30 °C) | self-splicing fitness (ln) (37 °C)
1 | ACUCAGCAAUAUUACGAAAG | -1.78 ± 0.12 | -1.42 ± 0.15
2 | ACUCAGCAAUAUUACGAACU | -0.166 ± 0.053 | 0.599 ± 0.066
3 | ACUCAGCAAUAUUACGAAGA | -0.868 ± 0.1 | -0.958 ± 0.11
4 | ACUCAGCAAUAUUACGACCU | -0.248 ± 0.12 | 0.216 ± 0.13
5 | ACUCAGCAAUAUUACGAGUC | -5.21 ± 0.29 | -2.97 ± 0.2
6 | ACUCAGCAAUAUUACGAUAG | -4.03 ± 0.24 | -2.21 ± 0.17
7 | ACUCAGCAAUAUUACGCCGC | -2.78 ± 0.28 | -1.78 ± 0.43
8 | ACUCAGCAAUAUUACGCCUA | -0.864 ± 0.15 | -0.0704 ± 0.12
9 | ACUCAGCAAUAUUACGCGCA | -0.615 ± 0.14 | -0.153 ± 0.1
10 | ACUCAGCAAUAUUACGCGCC | -1.17 ± 0.16 | -0.503 ± 0.17
11 | ACUCAGCAAUAUUACGCUGA | -3.74 ± 0.3 | -3.15 ± 0.34
12 | ACUCAGCAAUAUUACGCUGC | -3.36 ± 0.3 | -2.24 ± 0.29
13 | ACUCAGCAAUAUUACGCUUG | -1.83 ± 0.069 | -0.599 ± 0.083
14 | ACUCAGCAAUAUUACGCUUU | -1.85 ± 0.095 | -0.42 ± 0.11
15 | ACUCAGCAAUAUUACGGCCA | -1.28 ± 0.13 | -0.0774 ± 0.16
16 | ACUCAGCAAUAUUACGGCGC | -0.183 ± 0.068 | 0.000506 ± 0.097
17 | ACUCAGCAAUAUUACGGGGC | -4.64 ± 0.34 | -2.93 ± 0.44
18 | ACUCAGCAAUAUUACGGUAA | -1.66 ± 0.092 | -0.871 ± 0.081
19 | ACUCAGCAAUAUUACGGUGG | -4.04 ± 0.22 | -2.67 ± 0.18
20 | ACUCAGCAAUAUUACGUCGA | -3.15 ± 0.25 | -1.94 ± 0.18
21 | ACUCAGCAAUAUUACGUGCA | -0.681 ± 0.095 | -0.372 ± 0.11
22 | ACUCAGCAAUAUUACGUUGC | -3.43 ± 0.16 | -3.57 ± 0.26
23 | ACUCAGCAAUAUUACGUUUG | -2.36 ± 0.095 | -1.94 ± 0.14
24 | ACUGAGCAAUAUUACGAGCG | -2.44 ± 0.14 | -0.615 ± 0.13
25 | ACUGAGCAAUAUUACGAGGU | -2.91 ± 0.14 | -1.99 ± 0.23

Row | Sequence | self-splicing fitness (ln) (30 °C) | self-splicing fitness (ln) (37 °C)
26 | ACUGAGCAAUAUUACGAUAG | -5.01 ± 0.39 | -1.78 ± 0.17
27 | ACUGAGCAAUAUUACGAUGG | -2.16 ± 0.096 | -1.13 ± 0.1
28 | ACUGAGCAAUAUUACGCCAA | -3.45 ± 0.29 | -2.74 ± 0.22
29 | ACUGAGCAAUAUUACGCGUU | -3.38 ± 0.17 | -1.51 ± 0.13
30 | ACUGAGCAAUAUUACGCUCA | -3.23 ± 0.24 | -1.87 ± 0.18
31 | ACUGAGCAAUAUUACGCUUU | -2.53 ± 0.21 | -1.37 ± 0.18
32 | ACUGAGCAAUAUUACGGACC | -2.23 ± 0.26 | -1.14 ± 0.26
33 | ACUGAGCAAUAUUACGGCCG | -1.89 ± 0.17 | -0.752 ± 0.2
34 | ACUGAGCAAUAUUACGGCGC | -1.09 ± 0.088 | -0.47 ± 0.11
35 | ACUGAGCAAUAUUACGGGGA | -2.48 ± 0.17 | -1.92 ± 0.18
36 | ACUGAGCAAUAUUACGGGGU | -2.72 ± 0.14 | -3.13 ± 0.28
37 | ACUGAGCAAUAUUACGGUAU | -3.55 ± 0.18 | -3.17 ± 0.26
38 | ACUGAGCAAUAUUACGUACG | -2.42 ± 0.22 | -2.07 ± 0.25
39 | ACUGAGCAAUAUUACGUCGA | -3.59 ± 0.22 | -2.07 ± 0.18
40 | ACUUAGCAAUAUUACGAAUC | -3.59 ± 0.23 | -0.386 ± 0.23
41 | ACUUAGCAAUAUUACGACCG | -0.573 ± 0.18 | -0.217 ± 0.26
42 | ACUUAGCAAUAUUACGAGAU | -2.61 ± 0.2 | -2.95 ± 0.24
43 | ACUUAGCAAUAUUACGAGCC | -2.49 ± 0.3 | -1.26 ± 0.31
44 | ACUUAGCAAUAUUACGAGUA | 0.101 ± 0.18 | -1.33 ± 0.21
45 | ACUUAGCAAUAUUACGAUCG | -1.4 ± 0.11 | -1.23 ± 0.14
46 | ACUUAGCAAUAUUACGAUUG | -3.17 ± 0.2 | -0.306 ± 0.16
47 | ACUUAGCAAUAUUACGCAAU | -3.64 ± 0.26 | -2.05 ± 0.21
48 | ACUUAGCAAUAUUACGCUCA | -0.842 ± 0.13 | -0.196 ± 0.15
49 | ACUUAGCAAUAUUACGGACC | -0.607 ± 0.15 | -0.756 ± 0.25
50 | ACUUAGCAAUAUUACGGCCA | -0.83 ± 0.13 | -0.409 ± 0.19

Row | Sequence | self-splicing fitness (ln) (30 °C) | self-splicing fitness (ln) (37 °C)
51 | ACUUAGCAAUAUUACGGUUA | -1.27 ± 0.17 | -0.752 ± 0.15
52 | ACUUAGCAAUAUUACGUAAA | -2.37 ± 0.2 | -0.419 ± 0.2
53 | ACUUAGCAAUAUUACGUACG | -1.45 ± 0.099 | -1.04 ± 0.13
54 | ACUUAGCAAUAUUACGUAGA | -3.26 ± 0.13 | -1.59 ± 0.11
55 | ACUUAGCAAUAUUACGUCGG | -2.34 ± 0.14 | -1.59 ± 0.17
56 | ACUUAGCAAUAUUACGUGAU | -2.53 ± 0.1 | -1.37 ± 0.1
57 | ACUUAGCAAUAUUACGUGGC | -2.83 ± 0.16 | -2.85 ± 0.29
58 | AGAAAGCAAUAUUACGAACC | -1.29 ± 0.17 | -0.276 ± 0.13
59 | AGAAAGCAAUAUUACGAGGG | -2.8 ± 0.21 | -2.61 ± 0.36
60 | AGAAAGCAAUAUUACGAUGC | -2.16 ± 0.14 | -1.38 ± 0.13
61 | AGAAAGCAAUAUUACGCACA | -0.139 ± 0.1 | -0.236 ± 0.12
62 | AGAAAGCAAUAUUACGCACU | -0.82 ± 0.15 | -1.17 ± 0.18
63 | AGAAAGCAAUAUUACGCCUC | -1.37 ± 0.17 | -0.948 ± 0.23
64 | AGAAAGCAAUAUUACGCGAA | -1.95 ± 0.13 | -1.08 ± 0.16
65 | AGAAAGCAAUAUUACGCGCA | -0.218 ± 0.094 | 0.174 ± 0.11
66 | AGAAAGCAAUAUUACGCGUU | -2.71 ± 0.16 | -2.34 ± 0.17
67 | AGAAAGCAAUAUUACGCUAG | -3.32 ± 0.22 | -2.65 ± 0.21
68 | AGAAAGCAAUAUUACGCUCU | -3.2 ± 0.37 | -2.58 ± 0.49
69 | AGAAAGCAAUAUUACGCUUC | -1.58 ± 0.27 | -2.22 ± 0.39
70 | AGAAAGCAAUAUUACGGAAA | -1.63 ± 0.14 | -1.33 ± 0.15
71 | AGAAAGCAAUAUUACGGAUU | -2.21 ± 0.14 | -0.867 ± 0.16
72 | AGAAAGCAAUAUUACGGGGU | -3.8 ± 0.22 | -2.34 ± 0.23
73 | AGAAAGCAAUAUUACGGUAC | -3.29 ± 0.32 | -1.67 ± 0.23
74 | AGAAAGCAAUAUUACGUAAA | -2.15 ± 0.12 | -1.88 ± 0.14
